Measurements from patent US20060287501A1 (Pieris, published 2006).
Positions count from the first letter of the chain named. One block for each binder: values may come before it.

Legend:
[1] = biological target: T1, recombinant Nogo-A fragment NI-Fr4 (rat, UniProt Q9JK11 233-941); assay: SPR (Biacore X); NI-Fr4 on Ni/NTA chip via His6, Fab (pASK107, Strep-tag II) at 0.25-6.8 µM, equilibrium fit
T1 construct: Truncated rat Nogo-A with N-terminal Strep-tag II and C-terminal His6
T1 sequence: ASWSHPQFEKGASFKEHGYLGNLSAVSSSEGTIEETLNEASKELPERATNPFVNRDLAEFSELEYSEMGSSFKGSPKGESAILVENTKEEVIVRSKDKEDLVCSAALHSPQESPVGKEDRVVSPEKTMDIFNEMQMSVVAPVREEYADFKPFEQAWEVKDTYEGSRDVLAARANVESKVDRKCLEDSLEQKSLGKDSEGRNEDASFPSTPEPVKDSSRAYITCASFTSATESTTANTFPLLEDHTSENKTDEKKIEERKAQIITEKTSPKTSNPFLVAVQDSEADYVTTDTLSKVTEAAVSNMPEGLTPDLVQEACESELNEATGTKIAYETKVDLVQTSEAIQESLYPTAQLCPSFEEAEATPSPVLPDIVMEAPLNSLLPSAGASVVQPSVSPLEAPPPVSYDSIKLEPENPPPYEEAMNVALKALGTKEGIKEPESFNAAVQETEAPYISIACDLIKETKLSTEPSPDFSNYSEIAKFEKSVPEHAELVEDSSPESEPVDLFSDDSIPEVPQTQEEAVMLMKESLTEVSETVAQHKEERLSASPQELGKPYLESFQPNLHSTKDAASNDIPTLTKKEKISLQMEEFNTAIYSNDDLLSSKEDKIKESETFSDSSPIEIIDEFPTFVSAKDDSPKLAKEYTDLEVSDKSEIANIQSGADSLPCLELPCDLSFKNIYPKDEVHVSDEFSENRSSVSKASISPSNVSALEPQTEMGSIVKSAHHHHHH
Experimental: (§1) The thermodynamic affinity for the recombinant Nogo-A fragment NI-Fr4 was determined both for the II.1.8 mutant and for the wild-type IN-1 Fab fragment using the method of real time surface plasmon resonance (SPR) on a Biacore-X® system equipped with an Ni/NTA-derivatized sensor chip® (Biacore AB, Uppsala, Sweden). PBS containing 0.005% (v/v) surfactant P20 was used as continuous flow buffer as well as for dilution of proteins. Analysis was performed at 25° C. using a flow rate of 35 μl/min.
(§2) Then the Fab fragment (produced by means of the vector pASK107 and purified via the Strep-tag II; see Example 1)) was injected at a defined concentration (between 0.25 and 6.8 μM) for 2 minutes, followed by buffer flow for 4 minutes. The chip surface was regenerated using 70 μl 0.35 M EDTA, pH 8.0 in flow buffer prior to the next measurement. Each time-dependent binding isotherm of the Fab fragment was corrected for the background signal that was detected in the flow channel without NI-Fr4 using BIAevaluation software (Version 3.0). Resonance unit values for the bound Fab fragment at equilibrium for each applied concentration were then deduced and fitted (Voss and Skerra, supra) by non-linear least squares regression using an equation of the type y=a*x/(b+x). […]

[2] = biological target: T2, BSA (bovine, UniProt P02769 25-607); assay: ELISA; BSA as antigen
T2 construct: Control antigen
T2 sequence (P02769 25-607 limits assumed): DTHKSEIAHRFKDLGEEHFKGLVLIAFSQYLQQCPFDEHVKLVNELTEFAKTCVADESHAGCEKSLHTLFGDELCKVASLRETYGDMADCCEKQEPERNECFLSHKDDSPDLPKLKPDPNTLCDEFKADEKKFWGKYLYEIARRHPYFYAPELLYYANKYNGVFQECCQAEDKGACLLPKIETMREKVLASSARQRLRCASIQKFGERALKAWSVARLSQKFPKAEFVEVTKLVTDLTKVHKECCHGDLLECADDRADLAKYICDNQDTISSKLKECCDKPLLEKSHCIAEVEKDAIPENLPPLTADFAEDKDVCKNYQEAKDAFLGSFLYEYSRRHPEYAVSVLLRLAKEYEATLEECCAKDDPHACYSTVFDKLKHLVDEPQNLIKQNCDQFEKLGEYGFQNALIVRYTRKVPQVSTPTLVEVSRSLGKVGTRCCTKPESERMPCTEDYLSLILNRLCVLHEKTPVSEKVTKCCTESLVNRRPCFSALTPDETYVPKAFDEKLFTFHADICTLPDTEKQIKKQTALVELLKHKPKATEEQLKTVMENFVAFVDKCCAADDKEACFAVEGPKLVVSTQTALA

[3] = biological target: T3, recombinant Nogo-A fragment NI-Fr2 (rat, UniProt Q9JK11 233-941, labelled with digoxigenin (molar ratio 5:1) in the colony screening assay); assay: ELISA, wells coated with NI-Fr2, bound Fab detected with anti-human Ckappa antibody-alkaline phosphatase, delta A405/delta t
T3 construct: Truncated rat Nogo-A with C-terminal Strep-tag, made in the E. coli periplasm; also called MI-Fr2; wild-type NI-Fr2
T3 sequence: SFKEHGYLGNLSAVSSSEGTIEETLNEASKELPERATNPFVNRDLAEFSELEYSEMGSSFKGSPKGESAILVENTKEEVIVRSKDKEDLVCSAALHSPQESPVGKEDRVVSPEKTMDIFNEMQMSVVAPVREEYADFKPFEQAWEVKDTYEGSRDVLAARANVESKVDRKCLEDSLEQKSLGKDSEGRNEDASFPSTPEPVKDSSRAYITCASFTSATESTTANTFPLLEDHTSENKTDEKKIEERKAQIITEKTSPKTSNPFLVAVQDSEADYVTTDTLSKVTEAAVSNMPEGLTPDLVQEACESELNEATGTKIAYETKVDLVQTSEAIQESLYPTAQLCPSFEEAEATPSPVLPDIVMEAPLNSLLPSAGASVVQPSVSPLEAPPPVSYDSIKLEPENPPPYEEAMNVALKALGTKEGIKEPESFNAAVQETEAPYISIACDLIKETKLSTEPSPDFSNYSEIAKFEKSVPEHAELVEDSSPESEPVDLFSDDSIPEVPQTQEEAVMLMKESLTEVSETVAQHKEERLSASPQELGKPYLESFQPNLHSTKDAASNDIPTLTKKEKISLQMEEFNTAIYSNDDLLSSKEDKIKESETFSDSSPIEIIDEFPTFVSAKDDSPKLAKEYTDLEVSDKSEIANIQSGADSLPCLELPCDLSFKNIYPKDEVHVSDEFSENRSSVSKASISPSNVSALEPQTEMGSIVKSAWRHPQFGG
Experimental: Antigen-binding activity of the mutant Fab fragments was subsequently tested by ELISA using the recombinant NI-Fr2 for coating of the microtitre plate wells (FIG. 2).
ELISA was carried out in a 96 well microtitre plate (Becton Dickinson, Heidelberg, Germany) at ambient temperature with incubation steps of 1 h unless otherwise stated. Three washing steps with PBS/T were used after each incubation, and residual liquid was removed thoroughly. The wells were coated for 4 h with 50 μl of a solution of MI-Fr2 at concentrations between 180 and 200 μg/ml in PBS buffer and then blocked with 200 μl 3% (w/v) BSA, 0.5% (v/v) Tween 20 in PBS. After washing, 50 μl of the purified recombinant Fab fragment was applied at a dilution series in PBS/T. The wells were then incubated with 50 μl anti-human Cκ antibody conjugated with alkaline phosphatase (Sigma), diluted 1:1000 in PBS/T. Signals were finally developed in the presence of p-nitrophenyl phosphate (Voss and Skerra, (1997) Protein Eng., 10, 975-982). Enzymatic activity was measured at 25° C. as the change in absorbance at 405 nm per min with a SpectraMAX 250 instrument (Molecular Devices, Sunnyvale, Calif.). The data were corrected for background values determined in wells that were merely coated with BSA and fitted by non-linear least squares regression as described by Voss and Skerra, supra

[4] = biological target: T1, recombinant Nogo-A fragment NI-Fr4; assay: SPR (Biacore X); NI-Fr4 on Ni/NTA chip, equilibrium fit
Experimental: as §1, §2

[5] = biological target: T3, recombinant Nogo-A fragment NI-Fr2; assay: ELISA; NI-Fr2 coated, purified Fab (pASK88, His6), anti-human Ckappa-AP detection

B1: recombinant wild-type IN-1 Fab fragment (Fab, V domains shown)
VH: EVKLHESGPGLVRPGTSVKISCKASGYTFTNYWLGWVKQRPGHGLEWIGDIYPGGGYTNYNEKFKGKATLTADTSSSTAYMQLSSLTSEDSAVYFCARFYYGSSYWYFDVWGQGTTVTVSS
VL: DIELTQSPAIMAASVGETVTITCGASENIYGALNWYQRKQGKSPQLLIYGATNLADGMSSRFSGSGSGRQYSLKISSLHPDDVATYYCQNVLSTPRTFGAGTKLEIK
notes: Formats: pASK106 (ABD on light chain) in the colony screen, pASK88 (His6 on heavy chain) in ELISA, staining and neurite assay, pASK107 (Strep-tag II) in SPR; also called IN-1 wt; IN-1 (wild-type) Fab fragment
- Kd [1]: 7.8 µM

B3: II.1.8 Fab fragment (Fab, V domains shown)
VH: B1 VH
VL: B1 VL with V91I, L92N, S93R, T94V, R96V
notes: also called II.1.8 mutant; antibody fragment II.1.8
- fold improvement of KD over the wild-type IN-1 Fab fragment [4]: 8 fold
- Kd [1]: 1.04 µM

Continued, values first:

- binding result [2]: no binding
- binding result [3]: binds
B2: I.2.6 Fab fragment (IN-1 mutant) (Fab, V domains shown)
VH: B1 VH
VL: B1 VL with S93R, T94V, R96C
notes: Chimeric Fab, human IgG1/kappa constant domains; also called mutant I.2.6; original I.2.6 Fab fragment

- binding result [5]: binds
B4: I.1.4 Fab fragment (IN-1 mutant) (Fab, V domains shown)
VH: B1 VH
VL: B1 VL with S93P, T94V, R96W
notes: Chimeric Fab, human IgG1/kappa constant domains
